From patent US9457062B2, “Chaperonin 10-induced immunomodulation” (CBIO LIMITED, priority 2005, dated 2016)

T1: CD14 (Homo sapiens, UniProt P08571)
T1 construct: MonoMac 6 cells (a human monocytic cell line); endogenous in cells; host or cells: MonoMac 6
T1 sequence (P08571 20-345): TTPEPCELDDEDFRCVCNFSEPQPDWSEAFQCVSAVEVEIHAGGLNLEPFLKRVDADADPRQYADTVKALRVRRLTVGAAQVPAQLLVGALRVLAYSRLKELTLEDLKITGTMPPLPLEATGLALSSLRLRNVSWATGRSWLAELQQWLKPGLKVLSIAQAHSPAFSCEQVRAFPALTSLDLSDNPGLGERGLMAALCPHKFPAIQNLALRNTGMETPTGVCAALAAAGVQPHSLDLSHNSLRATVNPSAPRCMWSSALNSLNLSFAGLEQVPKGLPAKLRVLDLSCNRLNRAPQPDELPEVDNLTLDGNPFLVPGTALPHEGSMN

B1: IFNγ: recombinant mouse IFNγ (Chemicon), non-TLR agonist (protein, UniProt P01580 23-155, looked up)
Interferon gamma: HGTVIESLESLNNYFNSSGIDVEEKSLFLDIWRNWQKDGDMKILQSQIISFYLRLFEVLKDNQAISNNISVIESHLITTFFSNSKAKKDAFMSIAKFEVNNPQVQRQAFNELIRVVHQLLPESSLRKRKRSRC
B2: Hsp60: chaperonin 60, protein folding partner of Cpn10 (protein)
chain: AKDVKFGADARALMLQGVDLLADAVAVTMGPKGRTVIIEQSWGSPKVTKDGVTVAKSIDLKDKYKNIGAKLVQDVANNTNEEAGDGTTTATVLARSIAKEGFEKISKGANPVEIRRGVMLAVDAVIAELKKQSKPVTTPEEIAQVATISANGDKEIGNIISDAMKKVGRKGVITVKDGKTLNDELEIIEGMKFDRGYISPYFINTSKGQKCEFQDAYVLLSEKKISSIQSIVPALEIANAHRKPLVIIAEDVDGEALSTLVLNRLKVGLQVVAVKAPGFGDNRKNQLKDMAIATGGAVFGEEGLTLNLEDVQPHDLGKVGEVIVTKDDAMLLKGKGDKAQIEKRIQEIIEQLDVTTSEYEKEKLNERLAKLSDGVAVLKVGGTSDVEVNEKKDRVTDALNATRAAVEEGIVLGGGCALLRCIPALDSLTPANEDQKIGIEIIKRTLKIPAMTIAKNAGVEGSLIVEKIMQSSSEVGYDAMAGDFVNMVEKGIIDPTKVVRTALLDAAGVASLLTTAEVVVTEIPKEEKDPGMGAMGGMGGGMGGGMF

How the values were obtained:
Cpn10 promoter = Cpn10 promoter luciferase reporter (pCAT/LUC-CPN) in RAW264.7 cells; format: cell-based, mouse; details: optimal agonist concentrations (FIG. 18H): IFNγ 1 ng/ml, IL-1β 1 ng/ml, TNF-α 100 ng/ml
Source text: Reagents. Recombinant human Cpn10 was produced to GMP specifications by BresaGen Limited (Adelaide, Aus) essentially as described previously (Johnson, B. 2005. J. Biol Chem 280:4037-4047). […] For FACS analysis, a cysteine residue was engineered onto the C-terminus of Cpn10 and labeled with AlexFluor647 (Invitrogen) according to manufacturer's instructions. […] TLR ligands and cytokines included: E. coli LPS (strain 055:B5, Sigma), E. coli ultra-pure LPS (0111:B4 Sigma), S. aureus LTA, B. subtilis LTA, S. aureus PGN, B. subtilis PGN, zymosan cell wall from S. cerevisae, poly(I:C), imiquimod R837, CpG ODN 1826 and ODN2216, GpC ODN1826 control, (all from Invivogen, San Diego, Calif.), recombinant mouse IFNγ, (Chemicon), IL-1β (PeproTech), and recombinant human TNF-α (Invivogen). Antibodies. Rabbit polyclonal antibodies were raised against Cpn10 and affinity purified at CBio. […] After 24 h cells were harvested and cell viability assessed by trypan blue dye exclusion. […] Cells were washed, harvested in Cell Culture Lysis Reagent (CCLR, Promega) and firefly luciferase signal measured using the Luciferase Assay System (Promega) and the Wallac Victor 2 Multilabel Counter (Perkin-Elmer). […] Cells were assessed for viability, pooled per condition (n=4), pelleted by centrifugation and resuspended in CCLR.

CD14 = biological target: T1, CD14; assay: FRET with CD14 on MonoMac 6 cells; format: binding
Procedure: (§1) Cell labeling for FRET. MonoMac 6 cells (a human monocytic cell line) were labeled with 100 μl of a mixture of donor conjugated antibody (Cy3) and acceptor conjugated antibody (Cy5). For labelling of Cpn10, an anti-Cpn10 rabbit polyclonal antibody was used. […] The cells were fixed in order to prevent potential re-organisation of the proteins during the course of the experiment. Confocal imaging. Cells were imaged on a Carl Zeiss, Inc. LSM510 confocal microscope (with an Axiovert 200 fluorescent microscope) using a 1.4 NA 63× Zeiss objective. The images were analysed using LSM 2.5 image analysis software (Carl Zeiss, Inc.). Cy3 and Cy5 were detected using the appropriate filter sets. Using typical exposure times for image acquisition (less than 5 s), no fluorescence was observed from a Cy3-labelled specimen using the Cy5 filters, nor was Cy5 fluorescence detected using the Cy3 filter sets. FRET measurements. […] In the present study, FRET was measured using a method as previously described (Kenworthy and […] (1998) Journal of Cell Biology 142: 69-84; Kenworthy and […] (1998) in Gelb, M. H. (Ed.) Methods in molecular Biology. Humana Press Inc, Totowa, N.J. pp 37-49). Briefly, samples were labeled with donor and acceptor conjugated antibodies, and energy transfer was detected as an increase in donor fluorescence (dequenching) after complete photobleaching of the acceptor molecule. […]

TLR4 = biological target: T2, TLR4 (Homo sapiens, UniProt O00206); assay: FRET with TLR4 on MonoMac 6 cells; format: binding
T2 construct: endogenous in cells; host or cells: freshly isolated human monocytes; human monocyte-derived DC
T2 sequence (O00206 24-839): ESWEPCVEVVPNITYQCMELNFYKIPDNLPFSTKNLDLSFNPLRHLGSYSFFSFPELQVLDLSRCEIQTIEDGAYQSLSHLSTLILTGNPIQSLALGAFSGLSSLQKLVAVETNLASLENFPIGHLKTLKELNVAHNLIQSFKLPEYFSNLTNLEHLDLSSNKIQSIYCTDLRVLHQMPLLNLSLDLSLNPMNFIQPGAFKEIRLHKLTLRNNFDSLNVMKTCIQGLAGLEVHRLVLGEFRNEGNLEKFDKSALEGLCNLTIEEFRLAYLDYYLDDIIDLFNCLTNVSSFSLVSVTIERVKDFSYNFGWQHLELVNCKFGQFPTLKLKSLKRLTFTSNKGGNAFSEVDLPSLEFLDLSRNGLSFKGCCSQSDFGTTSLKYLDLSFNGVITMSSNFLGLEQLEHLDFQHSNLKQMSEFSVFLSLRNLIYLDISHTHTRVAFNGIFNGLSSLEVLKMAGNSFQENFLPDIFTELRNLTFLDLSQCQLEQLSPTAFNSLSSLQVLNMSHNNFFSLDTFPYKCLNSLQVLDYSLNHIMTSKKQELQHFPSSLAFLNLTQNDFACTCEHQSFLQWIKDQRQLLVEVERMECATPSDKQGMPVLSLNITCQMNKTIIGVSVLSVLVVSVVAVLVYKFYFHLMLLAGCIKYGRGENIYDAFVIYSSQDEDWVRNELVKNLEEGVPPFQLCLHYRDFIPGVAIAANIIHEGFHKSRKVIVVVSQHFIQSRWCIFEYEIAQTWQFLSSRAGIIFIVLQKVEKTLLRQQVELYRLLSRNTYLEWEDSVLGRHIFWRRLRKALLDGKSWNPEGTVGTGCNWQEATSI
Procedure: as §1

GM1 = assay: FRET with GM1 (lipid rafts) on MonoMac 6 cells; format: binding, human; details: donor GM1
Procedure: Cell labeling for FRET. MonoMac 6 cells (a human monocytic cell line) were labeled with 100 μl of a mixture of donor conjugated antibody (Cy3) and acceptor conjugated antibody (Cy5). For labelling of Cpn10, an anti-Cpn10 rabbit polyclonal antibody was used. The cells were rinsed twice in PBS/0.02% BSA, prior to fixation with 4% formaldehyde for 15 min. The cells were fixed in order to prevent potential re-organisation of the proteins during the course of the experiment. Confocal imaging. Cells were imaged on a Carl Zeiss, Inc. LSM510 confocal microscope (with an Axiovert 200 fluorescent microscope) using a 1.4 NA 63× Zeiss objective. The images were analysed using LSM 2.5 image analysis software (Carl Zeiss, Inc.). Cy3 and Cy5 were detected using the appropriate filter sets. Using typical exposure times for image acquisition (less than 5 s), no fluorescence was observed from a Cy3-labelled specimen using the Cy5 filters, nor was Cy5 fluorescence detected using the Cy3 filter sets. FRET measurements. FRET is a non-invasive imaging technique used to determine molecular proximity. […]
In the present study, FRET was measured using a method as previously described (Kenworthy and Edidin (1998) Journal of Cell Biology 142: 69-84; Kenworthy and Edidin (1998) in Gelb, M. H. (Ed.) Methods in molecular Biology. Humana Press Inc, Totowa, N.J. pp 37-49). […]

| Molecule | up-regulation of the Cpn10 promoter (Cpn10 promoter) | E ± ΔE (%) energy transfer efficiency (CD14; MM6 cells stimulated with LPS) [%] | E ± ΔE (%) energy transfer efficiency (CD14; Unstimulated MM6 cells) [%] | E ± ΔE (%) energy transfer efficiency (TLR4; MM6 cells stimulated with LPS) [%] | E ± ΔE (%) energy transfer efficiency (TLR4; Unstimulated MM6 cells) [%] | E ± ΔE (%) energy transfer efficiency (GM1; MM6 cells stimulated with LPS) [%] | E ± ΔE (%) energy transfer efficiency (GM1; Unstimulated MM6 cells) [%] |
| --- | --- | --- | --- | --- | --- | --- | --- |
| B1 | did not induce substantial up-regulation | – | – | – | – | – | – |
| B2 | – | 4 ± 2.0 | 6 ± 0.5 | 6 ± 1.0 | 5 ± 1.0 | 8 ± 2.0 | 6 ± 0.5 |
